From publication PMC2679190

Target: MyBPC1 (Myosin Binding Protein C1) (UniProt Q00872)
Sequence of UniProt Q00872 (Q00872 whole entry): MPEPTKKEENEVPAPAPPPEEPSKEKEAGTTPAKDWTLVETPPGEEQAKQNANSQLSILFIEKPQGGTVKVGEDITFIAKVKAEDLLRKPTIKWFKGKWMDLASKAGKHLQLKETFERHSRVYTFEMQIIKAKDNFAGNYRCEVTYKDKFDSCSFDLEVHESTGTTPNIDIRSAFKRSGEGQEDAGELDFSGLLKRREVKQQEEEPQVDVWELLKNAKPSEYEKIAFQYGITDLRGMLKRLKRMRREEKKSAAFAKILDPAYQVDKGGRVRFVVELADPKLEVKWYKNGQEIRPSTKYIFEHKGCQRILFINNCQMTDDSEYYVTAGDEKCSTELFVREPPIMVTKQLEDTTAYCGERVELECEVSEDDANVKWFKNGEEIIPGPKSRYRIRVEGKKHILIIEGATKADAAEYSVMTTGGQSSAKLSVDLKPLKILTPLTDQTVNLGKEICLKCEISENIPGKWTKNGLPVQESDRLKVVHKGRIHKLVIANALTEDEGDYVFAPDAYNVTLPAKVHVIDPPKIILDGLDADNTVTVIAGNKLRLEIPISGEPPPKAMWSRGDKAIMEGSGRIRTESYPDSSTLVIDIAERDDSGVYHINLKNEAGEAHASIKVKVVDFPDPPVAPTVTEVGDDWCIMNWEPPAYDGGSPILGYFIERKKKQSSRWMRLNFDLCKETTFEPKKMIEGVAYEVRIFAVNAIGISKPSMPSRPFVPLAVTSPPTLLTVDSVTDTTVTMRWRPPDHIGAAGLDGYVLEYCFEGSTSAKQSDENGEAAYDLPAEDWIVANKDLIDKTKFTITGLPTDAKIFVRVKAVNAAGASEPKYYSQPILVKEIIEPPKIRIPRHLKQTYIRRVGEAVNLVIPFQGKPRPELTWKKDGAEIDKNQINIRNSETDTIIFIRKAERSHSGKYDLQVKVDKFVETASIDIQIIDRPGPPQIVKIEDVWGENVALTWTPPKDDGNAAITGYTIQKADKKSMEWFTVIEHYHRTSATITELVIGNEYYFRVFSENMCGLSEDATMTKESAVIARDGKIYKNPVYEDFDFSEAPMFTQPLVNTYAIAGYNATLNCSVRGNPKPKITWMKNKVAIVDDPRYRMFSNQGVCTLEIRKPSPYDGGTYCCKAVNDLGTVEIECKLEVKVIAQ

rescue of HA-MyBPC1 from proteasome degradation in co-transfected HEK293T cells (MyBPC1 level by western blot, rescue by wild-type USP25m = 1)	Substance
3 fold	USP25m ΔUBA (Δ19-58 aa, inclusive) (enzyme)
< 8 fold	USP25m ΔUBA-UIM1-UIM2 (Δ19-141 aa, inclusive) (enzyme)
2 fold	USP25m ΔUIM1 (Δ96-115 aa, inclusive) (enzyme)
